Drawing on paper PMC314469, “Protein Interaction Networks by Proteome Peptide Scanning” (PLoS Biology, 2004), this text covers normalised SPOT signal, Boehringer light units (BLU); mean over the file's lines of this peptide for 38 molecules.

The target of experiment [1] is T1, amphyphisin SH3 (AMPH_HUMAN), P49418.
T1 chain: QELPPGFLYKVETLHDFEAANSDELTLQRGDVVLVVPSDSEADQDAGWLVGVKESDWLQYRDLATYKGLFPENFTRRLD
The experiment in a line: SPOT array.

Experiment [2] deals with endophilin SH3 (SH3G2_HUMAN), Q99962. The experiment in a line: SPOT array.

Turning to DADPLKRPTFKQIV [P10721 908-921], the normalised SPOT signal, Boehringer light units (BLU); mean over the file's lines of this peptide came out at 39.9 in experiment [1] and 19.8 in experiment [2].

Consider SRNVLRRPFQAQSG [Q12933 37-50], for which the normalised SPOT signal, Boehringer light units (BLU); mean over the file's lines of this peptide in experiment [1] was determined as 31.6; in experiment [2] it was 112.

With DGDPLKRPLLGIVQ [O75060 326-339], the figures for the normalised SPOT signal, Boehringer light units (BLU); mean over the file's lines of this peptide in experiment [1] and in experiment [2] were 18.7 and 41.8, respectively.

DEAQLSRPKKSSDR [O60481 257-270]: the normalised SPOT signal, Boehringer light units (BLU); mean over the file's lines of this peptide in experiment [1] amounted to 51.5; in experiment [2], 76.4.

Take DEVWFKRPDGSKSK [Q9BRI4 246-259]: the values for the normalised SPOT signal, Boehringer light units (BLU); mean over the file's lines of this peptide in experiment [1] and in experiment [2] were 30 and 60.8, respectively.

For DEPEPPRPRRGSLR [O43157 1891-1904], the normalised SPOT signal, Boehringer light units (BLU); mean over the file's lines of this peptide in experiment [1] was 3590; in experiment [2], 126.

On to DAYSFKRPDRSKMN [P13611 342-355], for which the normalised SPOT signal, Boehringer light units (BLU); mean over the file's lines of this peptide in experiment [1] is 543; in experiment [2], 45.4.

As for ADVDPQRPPRPEVK [Q9ULR6 191-204], the figures for the normalised SPOT signal, Boehringer light units (BLU); mean over the file's lines of this peptide in experiment [1] and in experiment [2] were 2760 and 125, respectively.

SRLTLLRPKKDGAA [Q9H7S7 172-185]: the figures for the normalised SPOT signal, Boehringer light units (BLU); mean over the file's lines of this peptide in experiment [1] and in experiment [2] were 199 and 159, respectively.

As to SSGVPGRPPGLEEE [P49810 64-78], the normalised SPOT signal, Boehringer light units (BLU); mean over the file's lines of this peptide in experiment [1] stood at 50.9; in experiment [2], 57.8.

As to SVRGPLRPPVRSPA [Q96H54 9-23], the normalised SPOT signal, Boehringer light units (BLU); mean over the file's lines of this peptide in experiment [1] amounted to 5070; in experiment [2] it was 5540.

On to DEARLRRPPRPSSD [Q9Y2H9 828-841], for which the normalised SPOT signal, Boehringer light units (BLU); mean over the file's lines of this peptide in experiment [1] was 2750; in experiment [2], 172.

Turning to SVGRPTRPSRGPWR [Q9HBQ8 81-94], the normalised SPOT signal, Boehringer light units (BLU); mean over the file's lines of this peptide in experiment [1] amounted to 9540; in experiment [2], 5870.

As for STQGLRRPFGVAVM [Q92608 327-340], the values for the normalised SPOT signal, Boehringer light units (BLU); mean over the file's lines of this peptide in experiment [1] and in experiment [2] were 8.9 and 27.2, respectively.

On to DGKFLLRPRKEQGT [P43403 184-197], for which the normalised SPOT signal, Boehringer light units (BLU); mean over the file's lines of this peptide in experiment [1] is 424; in experiment [2], 130.

Consider DFPKPKKPPPPAKA [Q9Y5K6 333-347], for which the normalised SPOT signal, Boehringer light units (BLU); mean over the file's lines of this peptide in experiment [1] amounted to 33; in experiment [2], 8340.

In the case of ADAEPGRPKKRAHS [Q9P2P0 592-605], the normalised SPOT signal, Boehringer light units (BLU); mean over the file's lines of this peptide in experiment [1] is 120; in experiment [2], 48.3.

As for DGKDPRRPKRPRTI [O60663 189-202], the normalised SPOT signal, Boehringer light units (BLU); mean over the file's lines of this peptide was 3740 in experiment [1] and 85 in experiment [2].

As to DAQEIIRPRRSKYF [Q9HCG2 115-128], the normalised SPOT signal, Boehringer light units (BLU); mean over the file's lines of this peptide worked out at 723 in experiment [1] and 165 in experiment [2].

In the case of DGRLLYRPNKAGET [Q9ULH0 399-412], the normalised SPOT signal, Boehringer light units (BLU); mean over the file's lines of this peptide in experiment [1] worked out at 20; in experiment [2], 44.6.

With DEGSLRRPGRLTST [Q96ML9 142-155], the normalised SPOT signal, Boehringer light units (BLU); mean over the file's lines of this peptide was 81.1 in experiment [1] and 28.2 in experiment [2].

For DDILINRPAKKHLE [Q9H9F8 116-129], the normalised SPOT signal, Boehringer light units (BLU); mean over the file's lines of this peptide in experiment [1] was found to be 7.5; in experiment [2], 127.

Regarding DANRLRRPGGSYPA [Q14767 49-62], the normalised SPOT signal, Boehringer light units (BLU); mean over the file's lines of this peptide came out at 24.8 in experiment [1] and 59.6 in experiment [2].

As for SWGGPWRPPPPGFW [Q8TC90 86-100], the normalised SPOT signal, Boehringer light units (BLU); mean over the file's lines of this peptide in experiment [1] is 43.7; in experiment [2] it was 1290.

Turning to ASLPPPRPQRPVTK [Q9NQE0 197-210], the normalised SPOT signal, Boehringer light units (BLU); mean over the file's lines of this peptide in experiment [1] amounted to 9900; in experiment [2] it was 5900.

Take DESSPRRPDYLKGL [Q99698 2220-2233]: the normalised SPOT signal, Boehringer light units (BLU); mean over the file's lines of this peptide in experiment [1] amounted to 23.9; in experiment [2], 28.

Turning to DEEKPKRPTRRRRK [O94885 688-701], the normalised SPOT signal, Boehringer light units (BLU); mean over the file's lines of this peptide came to 23100 in experiment [1] and 959 in experiment [2].

Regarding DGEMFMRPGKLFDY [P08574 161-174], the normalised SPOT signal, Boehringer light units (BLU); mean over the file's lines of this peptide in experiment [1] turned out to be 117; in experiment [2], 72.5.

As for SSKEFNRPDKLKAH [Q9BYN7 579-592], the values for the normalised SPOT signal, Boehringer light units (BLU); mean over the file's lines of this peptide in experiment [1] and in experiment [2] were 132 and 120, respectively.

For DDEPPARPPPPPPA [Q9NQC3 135-149], the normalised SPOT signal, Boehringer light units (BLU); mean over the file's lines of this peptide in experiment [1] was 37.6; in experiment [2] it was 54.3.

As for DDLEIVRPARRRTP [Q15598 3286-3299], the normalised SPOT signal, Boehringer light units (BLU); mean over the file's lines of this peptide in experiment [1] was determined as 189; in experiment [2], 67.6.

On to STPRPARPPSPTEQ [Q96ML3 75-89], for which the normalised SPOT signal, Boehringer light units (BLU); mean over the file's lines of this peptide is 324 in experiment [1] and 9450 in experiment [2].

For DELEPRRPRYRVPD [Q14697 104-117], the normalised SPOT signal, Boehringer light units (BLU); mean over the file's lines of this peptide in experiment [1] came out at 35.4; in experiment [2], 26.4.

Take DESRIRRPMNAFMV [P35713 81-94]: the normalised SPOT signal, Boehringer light units (BLU); mean over the file's lines of this peptide came out at 69.5 in experiment [1] and 94.4 in experiment [2].

Turning to DFYEPRRPEDDDPT [Q96IE0 67-80], the figures for the normalised SPOT signal, Boehringer light units (BLU); mean over the file's lines of this peptide in experiment [1] and in experiment [2] were 0 and 50.1, respectively.

With DDSVILRPSKSVKL [Q9Y2R2 666-679], the normalised SPOT signal, Boehringer light units (BLU); mean over the file's lines of this peptide stood at 119 in experiment [1] and 167 in experiment [2].

As for DSSKLRRPLKRNRI [Q9NVG6 7-20], the normalised SPOT signal, Boehringer light units (BLU); mean over the file's lines of this peptide in experiment [1] came to 111; in experiment [2], 167.

As for DGRTPLRPSRNTKQ [Q9H0H1 56-69], the normalised SPOT signal, Boehringer light units (BLU); mean over the file's lines of this peptide in experiment [1] was found to be 14900; in experiment [2], 287.
